{"source": "patent US20220315645A1", "biological_target": "HBsAg on HBV virions (HBV from HepDE19 cell supernatant) (Hepatitis B virus)", "assay": "cell-based or functional assay"}
{"substance": "libivirumab (antibody)", "values": [{"measurement": "IC50, in vitro HBV neutralization on HepG2-NTCP cells (ELISA read-out)", "value": 35, "unit": "ng/mL"}, {"measurement": "IC50, in vitro HBV neutralization on HepG2-NTCP cells (HBcAg immunofluorescence read-out)", "value": 128, "unit": "ng/mL"}]}
